# Article PMC8495455, “Discovery of a transdermally deliverable pentapeptide for activating AdipoR1 to promote hair growth” (EMBO Molecular Medicine, 2021)
# B1: Flag-fused N-terminal-truncated AdipoR1 (residues 89-375) [human] / GST-fused P5 (GLYYF) [human] (parent complex)
# chain 1: EGRWRVIPYDVLPDWLKDNDYLLHGHRPPMPSFRACFKSIFRIHTETGNIWTHLLGFVLFLFLGILTMLRPNMYFMAPLQEKVVFGMFFLGAVLCLSFSWLFHTVYCHSEKVSRTFSKLDYSGIALLIMGSFVPWLYYSFYCSPQPRLIYLSIVCVLGISAIIVAQWDRFATPKHRQTRAGVFLGLGLSGVVPTMHFTIAEGFVKATTVGQMGWFFLMAVMYITGAGLYAARIPERFFPGKFDIWFQSHQIFHVLVVAAAFVHFYGVSNLQEFRYGLEGGCTDDTLL
# chain 2: GLYYF
# B2: GST-fused P5 (GLYYF) [human] / Flag-fused N-terminal-truncated AdipoR1 (residues 89-375) [human] (parent complex)
# chain 1: GLYYF
# chain 2: B1 chain 1
# Variants of: B1
# Test: GST pulldown; n = 3 technical replicates/group; parent: 1; read off a plot
row,Variant,ratio to parent
1,chain 1 Y138A,~0.65
2,chain 1 Y141A,~1
3,chain 1 Y137A,~0.77

# Variants of: B1
# Test: as above
# Remark: another data set of the same source
row,Variant,ratio to parent
1,chain 1 R274A,~0.83
2,chain 1 F273A,~0.73
3,chain 1 F197E,~0.3
4,chain 1 F197A,~0.57

# Variants of: B1
# Test: as above
# Remark: another data set of the same source
row,Variant,ratio to parent
1,"chain 1 F197E, chain 1 F273A",~0.72
2,"chain 1 F197A, chain 1 R274A",~0.75
3,"chain 1 F197E, chain 1 E201A",~0.45

# Variants of: B2
# Test: as above
row,Variant,ratio to parent
1,chain 1 Y4A,~0.12
2,chain 1 Y4D,~0.13
